PMC9293632, “PKGIα is activated by metal-dependent oxidation in vitro but not in intact cells” (The Journal of Biological Chemistry, 2022)

Biological target: the molecule itself
Assay: cross-linking; disulfide cross-link at Cys43 of freshly purified kinase; diluted in KPE buffer (10 mM potassium phosphate, 1 mM EDTA, pH 7.0) with 0, 5 or 15 mM DTT, 1 h on ice; maleimide in SDS sample buffer, nonreducing 9% SDS-PAGE without heating, anti-Flag Western blot

B1: Flag-tagged WT PKGIα (type I cGMP-dependent protein kinase, alpha isoform) (enzyme, UniProt Q13976 1-671, looked up)
chain: MSELEEDFAKILMLKEERIKELEKRLSEKEEEIQELKRKLHKCQSVLPVPSTHIGPRTTRAQGISAEPQTYRSFHDLRQAFRKFTKSERSKDLIKEAILDNDFMKNLELSQIQEIVDCMYPVEYGKDSCIIKEGDVGSLVYVMEDGKVEVTKEGVKLCTMGPGKVFGELAILYNCTRTATVKTLVNVKLWAIDRQCFQTIMMRTGLIKHTEYMEFLKSVPTFQSLPEEILSKLADVLEETHYENGEYIIRQGARGDTFFIISKGTVNVTREDSPSEDPVFLRTLGKGDWFGEKALQGEDVRTANVIAAEAVTCLVIDRDSFKHLIGGLDDVSNKAYEDAEAKAKYEAEAAFFANLKLSDFNIIDTLGVGGFGRVELVQLKSEESKTFAMKILKKRHIVDTRQQEHIRSEKQIMQGAHSDFIVRLYRTFKDSKYLYMLMEACLGGELWTILRDRGSFEDSTTRFYTACVVEAFAYLHSKGIIYRDLKPENLILDHRGYAKLVDFGFAKKIGFGKKTWTFCGTPEYVAPEIILNKGHDISADYWSLGILMYELLTGSPPFSGPDPMKTYNIILRGIDMIEFPKKIAKNAANLIKKLCRDNPSERLGNLKNGVKDIQKHKWFEGFNWEGLRKGTLTPPIIPSVASPTDTSNFDSFPEDNDEPPPDDNSGWDIDF
notes: PKGIα, the alpha isoform of type I cGMP-dependent protein kinase; On oxidation the two chains of the homodimer are joined by a disulfide between their Cys43 residues; source: HEK293T, transiently transfected, purified (anti-Flag beads, eluted in PBS with Flag peptide)
stoichiometry N: 2
